The text below walks through data of patent US20160287696A1, “PAN POLLEN IMMUNOGENS AND METHODS AND USES FOR IMMUNE RESPONSE MODULATION” (LA JOLLA INSTITUTE FOR ALLERGY AND IMMUNOLOGY, priority 2013, published 2016).

B1: NTGA 77: Phl p wild type sequence, Table 2 (protein)
chain: QEVAGDVRMTDTRADEAERGITIKSTGISLYYEMSEESLASYKGDRDGNDYLINLIDSPGHVDFSSEVTAALRITDGALVVVDCIEGVCVQTETVLRQALGERIRPVLTVNKMDRCFLELQVDGEEAYQTFSRVIENANVIMATYEDALLGDVQVYPEKGTVAFSAGLHGWAFTLTNFAKMYASKFGVDESKMMERLWGENFFDPATKKWTSKNTGSGTCKRGFVQFCYEPIKQIIEICMNDQKDKLWPMLKKLGVTMKNDEKDLMGKALMKRVMQAWLPASRALLEMMVYHLPSPSKAQRYRVENLYEGPLDDVYANAIRNCDPEGPLMLYVSKMIPASDKGRFFAFGRVFAGRVATGMKVRIMGPNFVPGQKKDLYTKSVQRTVIWMGKKQESVEDVPCGNTVALVGLDQFITKNATLTGEKEVDACPIRAMKFSVSPVVRVAVQCKVASDLPKLVEGLKRLAKSDPMVLCSIEESGEHIIAGAGELHLEICLKDLQDDFMGGAEIIVSPPVVSFRETVLDKSCRTVMSKSPNKHNRLYMEARPLEEGLPEAIDEGRIGPRDDPKVRSKILSEEFGWDKDLAKKIWCFGPETTGPNMVVDMCKGVQYLNEIKDSVVAGFQWASKEGALADENMRGICFEVCDVVLHTDAIHRGGGQVIPTARRVIFASQLTAKPRLLEPVYLVEIQAPEGALGGIYGVLNQKRGHVFEEMQRPGTPLYNIKAYLPVIESFGFSATLRAATSGQAFPQCVFDHWDVMNSDPLEVDSQSFNLVKEIRKRKGLKEQMTPLSDFEDKL
modifications: Phleum Pratense
B2: NTGA 39/59: Phl p wild type full length sequence from which PG+ peptides of NTGA's 39 and 59 derive (protein)
chain: MAPRKFFVGGNWKCNGASDDVKKIVTVLNEAEVPSEDAVEVVVSPPFVFLQQAKALLRPDFAVAAQNCWVRKGGAFTGEISAEMLVNLQVPWVILGHSERRALLSESNDFVADKVAYALAQGLKVIACIGETLEQREAGTTMEVVAAQTKAIAEKISDWTNVVLAYEPVWAIGTGKVASRAQAQEVHDGLRKWLHANVGPAVAESTRIIYGGSVNGANCKELAAQPDLDGFLVGGASLKPEFVDIIKSATVKSSS
modifications: Phleum Pratense
B3: NTGA 86: Phl p wild type sequence, Table 2 (protein)
chain: MSTAEATREENVYMAKLAEQAERYEEMVEFMEKVAKTADVGELTVEERNLLSVAYKNVIGARRASWRIISSIEQKEESRGNEAYVASIKEYRTRIETELSKICDGILKLLDSHLVPSATAAESKVFYLKMKGDYHRYLAEFKAGAERKEAAENTLVAYKSAQDIALADLPTTHPIRLGLALNFSVFYYEILNSPDRACNLAKQAFDEAIAELDSLGEESYKDSTLIMQLLRDNLTLWTSDNADEGGDEIKEASKPEGEGH
modifications: Phleum Pratense
B4: NTGA 5/64: Phl p wild type full length sequence from which PG+ peptides of NTGA's 5 and 64 derive (protein)
chain: MAAKCYPTVSDEYLAAVAKARRKLRGLIAEKNCAPLMLRIAWHSAGTFDVATKTGGPFGTMRCPAELAHGANAGLDIAVRLLEPIKEQVPILSYADFYQLAGVVAVEITGGPEVPFHPGRQDKTEPPPEGRLPDATLGSDHLRQVFTAQMGLSDQDIVALSGGHTLGRCHKERSGFEGAWTANPLIFDNSYFTELLTGEKEGLLQLPTDKTLLTDPAFRPLVEKYAADEDAFFADYAEAHLKLSELGFGE
modifications: Phleum Pratense
B5: NTGA 19: Phl p wild type sequence, Table 2 (protein)
chain: GVVATTDAVEACTGVNVAVMVGGFPRKEGMERKDVMSKNVSIYKSQASALEAHAAPNCKVLVVANPANTNALILKEFAPSIPEKNISCLTRLDHNRALGQVSERLNVQVSDVKNVLIWGNHSSSQYPDVNHATVKTSSGEKPVRELVQDDEWLNGPFIATVQQRGAAIIKARKLSSALSAASSACDHIRDWVLGTPEGTFVSMGVYSDGSYGVPAGLIYSFPVTCSGGEWTIVQGLPIDEFSRKKMDATAQELSEEKALAYSCL
modifications: Phleum Pratense
B6: NTGA 73: Phl p wild type sequence, Table 2 (protein)
chain: MSSAKQVLEPAFQGAGQKPGTEIWRIENFNPVPLPKSDYGKFYCGDSYIVLQTTCNKGGAYLFDIHFWIGKDSSQDEAGTSAIKTVELDTMLGGRAVQHREPQGYESDKFLSYFKPCIIPLEGGFASGFKTPEEEKFETRLYICKGKRAIRVKEVPFARSSLNHDDVFILDTEKKIYQFNGANSNIQERAKALEVIQHLKDKYHEGVCDVAIVDDGKLQAESDSGEFWVVFGGFAPIGKKTVSDDDVILETSPTKLYSINNGKLKLEDIVLTKSILENTKCFLLDCGSELFVWVGRVTQVDDRKAASAAVEEFIVKQNRPKTTRVTQVIQGYENHTFKSLFESWPVSSTGNASTEEGRGKVAALLKKKGDVKGASKNSTPVNEEVPPLLEGSGKLEVWCVDGSAKTALPKEDLGKFHSGDCYIVLYTYHSGEKREEFYLTYWIGKDSVLEDQHMALQIATTIWNSMKGRPVLGRIYQGKEPPQFIALFQPMVILKGGISSGYKKSIEENGLKDETYSGTGIALVHIHGTSIHNNKTLQVDAVSISLSSTDCFVLQSGNSMFTWIGNTSSYEQQQWAAKVAEFLKPGASVKHCKEGTESSAFWSALGGKQNYTSKNATQDVLREPHLYTFSFRNGKLEVTEVFNFSQDDLLTEDVMILDTHAEVFVWMGQCVDTKEKQTAFETGQKYVEHAVNFEGLSPDVPLYKVSEGNEPCFFRTYFSWDNTRSVIHGNSFQKKLSLLFGMRSESGSKGSGDGGPTQRASALAALSSAFNPSSQDKQSNDRPKSSGDGGPTQRASALAALSSSLNPSSKPKSPHSQSRSGQGSQRAAAVAALSNVLTAEGSTLSPRNDAEKTELAPSEFHTDQDAPGDEVPSEGERTEPDVSQEETANENGGETTFSYDRLISKSTDPVRGIDYKRRETYLSDSEFETVFGVTKEEFYQQPRWKQELQKRKADLF
modifications: Phleum Pratense
B7: NTGA 13: Phl p wild type sequence, Table 2 (protein)
chain: MDEEYDVIVLGTGLKECILSGLLSVDGLKVLHMDRNDYYGGESTSLNLTKIWKRFKGSEATPDHLGVSKEYNVDMVPKFMMANGALVRVLIRTSVTKYLNFKAVDGSFVYNNGKIHKVPATDVEALKSNLMGLFEKRRARKFFIYVQDYEEEDPKSHEGLDLHKVTTREVISKYGLEDDTVDFIGHALALHRDDNYLDEPAIDTVKRMKLYAESLARFQGGSPYIYPLYGLGELPQAFARLSAVYGGTYMLNKPECKVEFDESGKAFGVTSEGETAKCKKVVCDPSYLPDKVTKVGRVARAICIMKHPIPDTKDSHSVQIILPKKQLKRKSDMYVFCCSYAHNVAPKGKFIAFVSTEAETDKPEIELKPGIDLLGPVEETFFDIYDRYEPANAPEEDNCFVTNSYDATTHFETTVKDVLALYSKITGKELDLSVDLNAASAGESE
modifications: Phleum Pratense

One assay deals with cultured PBMCs of the allergic donors. Description: ELISPOT of IL-5 or IFNg production by cultured PBMCs of TG allergic donors in response to peptide. The assay is classed as cell-based, human. The settings on record: NTGA number given = criterion met; TG allergic donors n=20. In outline:
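PBMCs from Timothy grass-allergic donors (n=20), expanded in vitro with TG extract (50 μg/mL) or peptide pool, then plated at 1×10^5 cells/well with single 15-mer peptide (10 μg/mL). IL-5 or IFNg measured by ELISPOT; peptide response positive at ≥20 SFCs/10^6 PBMCs, P .05, stimulation index ≥2; value is number of responding donors.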
B1: the “NTGA's containing at least one T cell epitope, Th+ (Col 2)” value (shortened to “NTGA's containing”) stood at 77.

As to B2, the “NTGA's containing” value is recorded as 39/59.

In the case of B3, the “NTGA's containing” value stood at 86.

In the case of B4, the “NTGA's containing” value was 5/64.

Still in this assay, the particulars now being: Table 6; PG+ peptides recognized by T cells of grass allergic donors (n=20).
B5: the “No of PG+ & th+ peptides per NTGA” value is 0.

Turning to B1, the “No of PG+ & th+ peptides per NTGA” value turned out to be 4.

With B6, the “No of PG+ & th+ peptides per NTGA” value is reported as 0.

Take B7: the “No of PG+ & th+ peptides per NTGA” value was determined as 0.

With B3, the “No of PG+ & th+ peptides per NTGA” value was 1.

The same assay, now with this note: Table 6; PP peptides recognized by T cells of grass allergic donors (n=20).
For the molecule B5, the “No of PP & Th+ peptides per NTGA” value was 0.

Turning to B1, the “No of PP & Th+ peptides per NTGA” value is 2.

As to B6, the “No of PP & Th+ peptides per NTGA” value worked out at 0.

For B7, the “No of PP & Th+ peptides per NTGA” value turned out to be 0.

On to B3, for which the “No of PP & Th+ peptides per NTGA” value is 1.

Still in this assay, the particulars now being: Table 7; peptides per NTGA recognized by T cells of grass allergic donors (n=20).
Consider B5, for which the “# Th+” value came to 0.

Take B1: the “# Th+” value was determined as 0.

Take B6: the “# Th+” value was 0.

For B7, the “# Th+” value is listed as 0.

With B3, the “# Th+” value came out at 0.
